# In article PMC9287160, “Structural insights into the function-modulating effects of nanobody binding to the integrin receptor αMβ2” (The Journal of Biological Chemistry, 2022):
# T1: recombinant human αMβ2 αI domain (human)
# T1 construct: αI domain (von Willebrand factor type A domain) of integrin αM (CD11b), human; numbers count on: the mature protein; PDB 4M76 (cited) holds an αI–C3d complex of the same laboratory; also called hαI; human αI domain
# T1 chain: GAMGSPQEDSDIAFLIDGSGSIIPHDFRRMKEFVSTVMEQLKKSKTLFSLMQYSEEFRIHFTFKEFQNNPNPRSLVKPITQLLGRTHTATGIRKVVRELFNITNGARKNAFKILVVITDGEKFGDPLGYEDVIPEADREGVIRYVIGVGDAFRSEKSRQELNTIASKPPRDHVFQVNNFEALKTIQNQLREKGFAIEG
# Biological target: T1, recombinant human αMβ2 αI domain
# Experiment: BLI; His-tagged hCD11bNb1 on anti-penta-HIS sensors; αMβ2 HP 6.25-50 nM or αI domain 0.8-25 nM in solution; 30 °C; 20 mM Hepes pH 7.5, 150 mM NaCl, 5 mM MgCl2, 1 mM CaCl2; 1:1 model; triplicates; apparent
# Details: both partners purified
binder,measurement,value
"nanobody hCD11bNb1 (His-tagged) (VHH, nanobody selected by phage display from a llama immunised with the αMβ2 HP; they are in PDB 7NP9 (nanobody alone) and PDB 7P2D (complex); Captured through its His tag on anti-penta-HIS BLI sensors. pET-22b(+) usually adds a C-terminal His6 (surmise); also called parental hCD11bNb1; WT hCD11bNb1) VHH: QVQLVETGGGLVQAGGSLRLSCAASGNINSFNAMGWFRQAPGKQRELVAAITFGGRTNYADSVKGRFTISRDNTKGSVYLQMNSLKPEDTAVYYCAASENNLLTGVWHYWGRGTQVTVSS",Kd,1 to 6 nM
